{
  "source": "paper PMC6874530",
  "about": "(2019)",
  "binders": {"B1": {"name": "LXRα LBD (protein)", "chain": "EQLGMIEKLVAAQQQCNRRSFSDRLRVTPWPMAPDPHSREARQQRFAHFTELAIVSVQEIVDFAKQLPGFLQLSREDQIALLKTSAIEVMLLETSRRYNPGSESITFLKDFSYNREDFAKAGLQVEFINPIFEFSRAMNELQLNDAEFALLIAISIFSADRPNVQDQLQVERLQHTYVEALHAYVSIHHPHDRLMFPRMLMKLVSLRTLSSVHSEQVFALRLQDKKLPPLLSEIWDVHE", "modifications": "lipogenic agonists (average)"}, "B2": {"name": "LXRα LBD (protein)", "chain": "B1 chain", "modifications": "AZ6"}, "B3": {"name": "LXRβ LBD (protein)", "chain": "AQELMIQQLVAAQLQCNKRSFSDQPKVTPWPLGADPQSRDARQQRFAHFTELAIISVQEIVDFAKQVPGFLQLGREDQIALLKASTIEIMLLETARRYNHETECITFLKDFTYSKDDFHRAGLQVEFINPIFEFSRAMRRLGLDDAEYALLIAINIFSADRPNVQEPGRVEALQQPYVEALLSYTRIKRPQDQLRFPRMLMKLVSLRTLSSVHSEQVFALRLQDKKLPPLLSEIWDVHE", "modifications": "24,25EC"}, "B4": {"name": "LXRβ LBD (protein)", "chain": "B3 chain", "modifications": "BMS-852927"}, "B5": {"name": "LXRα LBD (protein)", "chain": "B1 chain"}, "B6": {"name": "LXRβ LBD (protein)", "chain": "B3 chain"}},
  "data": [
    {"target": "SRC1 peptide (Homo sapiens, UniProt Q15788)", "sequence (Q15788 2-1441)": "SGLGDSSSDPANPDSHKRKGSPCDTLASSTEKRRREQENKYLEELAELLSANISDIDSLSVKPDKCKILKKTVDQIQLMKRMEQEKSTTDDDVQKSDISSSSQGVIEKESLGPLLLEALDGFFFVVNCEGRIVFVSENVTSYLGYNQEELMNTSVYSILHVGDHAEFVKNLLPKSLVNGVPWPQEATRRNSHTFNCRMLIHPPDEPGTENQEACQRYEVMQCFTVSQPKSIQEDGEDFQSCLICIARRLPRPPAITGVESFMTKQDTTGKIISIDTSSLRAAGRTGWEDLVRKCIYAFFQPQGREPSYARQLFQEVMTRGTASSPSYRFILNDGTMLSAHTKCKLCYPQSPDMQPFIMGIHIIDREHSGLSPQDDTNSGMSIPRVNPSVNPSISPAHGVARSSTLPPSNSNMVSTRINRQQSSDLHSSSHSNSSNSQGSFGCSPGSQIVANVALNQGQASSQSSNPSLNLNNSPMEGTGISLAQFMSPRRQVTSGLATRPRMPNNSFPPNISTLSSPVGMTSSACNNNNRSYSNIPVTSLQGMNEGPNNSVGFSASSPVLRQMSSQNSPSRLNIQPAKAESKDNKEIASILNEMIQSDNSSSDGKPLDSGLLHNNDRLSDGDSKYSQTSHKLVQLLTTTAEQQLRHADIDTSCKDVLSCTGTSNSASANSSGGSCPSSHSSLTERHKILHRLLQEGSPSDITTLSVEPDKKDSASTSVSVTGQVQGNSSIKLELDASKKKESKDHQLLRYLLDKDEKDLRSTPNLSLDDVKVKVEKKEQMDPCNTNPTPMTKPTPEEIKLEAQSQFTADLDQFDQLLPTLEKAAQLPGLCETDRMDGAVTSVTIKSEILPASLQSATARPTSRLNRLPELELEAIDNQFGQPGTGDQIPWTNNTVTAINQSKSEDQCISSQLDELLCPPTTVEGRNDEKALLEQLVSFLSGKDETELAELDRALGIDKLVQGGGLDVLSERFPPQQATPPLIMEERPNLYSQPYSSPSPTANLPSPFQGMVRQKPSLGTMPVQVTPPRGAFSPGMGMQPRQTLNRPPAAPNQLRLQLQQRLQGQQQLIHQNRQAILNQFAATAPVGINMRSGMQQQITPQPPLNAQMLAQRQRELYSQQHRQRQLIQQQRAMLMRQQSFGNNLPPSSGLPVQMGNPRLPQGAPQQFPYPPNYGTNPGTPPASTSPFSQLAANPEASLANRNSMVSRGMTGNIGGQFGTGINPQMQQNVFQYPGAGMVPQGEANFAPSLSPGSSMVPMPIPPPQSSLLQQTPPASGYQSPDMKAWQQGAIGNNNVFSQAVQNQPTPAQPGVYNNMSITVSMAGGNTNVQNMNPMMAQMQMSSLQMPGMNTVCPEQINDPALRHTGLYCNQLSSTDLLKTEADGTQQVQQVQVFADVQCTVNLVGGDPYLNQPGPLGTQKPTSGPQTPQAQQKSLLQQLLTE", "assay": "SPR", "units": {"Kd": "nM"}, "values": [
      {"binder": "B1", "Kd": 1200},
      {"binder": "B2", "Kd": 1500},
      {"binder": "B3", "Kd": 2500},
      {"binder": "B4", "Kd": 19800}
    ]},
    {"target": "NCOR1 peptide (Homo sapiens, UniProt O75376)", "sequence (O75376 whole entry)": "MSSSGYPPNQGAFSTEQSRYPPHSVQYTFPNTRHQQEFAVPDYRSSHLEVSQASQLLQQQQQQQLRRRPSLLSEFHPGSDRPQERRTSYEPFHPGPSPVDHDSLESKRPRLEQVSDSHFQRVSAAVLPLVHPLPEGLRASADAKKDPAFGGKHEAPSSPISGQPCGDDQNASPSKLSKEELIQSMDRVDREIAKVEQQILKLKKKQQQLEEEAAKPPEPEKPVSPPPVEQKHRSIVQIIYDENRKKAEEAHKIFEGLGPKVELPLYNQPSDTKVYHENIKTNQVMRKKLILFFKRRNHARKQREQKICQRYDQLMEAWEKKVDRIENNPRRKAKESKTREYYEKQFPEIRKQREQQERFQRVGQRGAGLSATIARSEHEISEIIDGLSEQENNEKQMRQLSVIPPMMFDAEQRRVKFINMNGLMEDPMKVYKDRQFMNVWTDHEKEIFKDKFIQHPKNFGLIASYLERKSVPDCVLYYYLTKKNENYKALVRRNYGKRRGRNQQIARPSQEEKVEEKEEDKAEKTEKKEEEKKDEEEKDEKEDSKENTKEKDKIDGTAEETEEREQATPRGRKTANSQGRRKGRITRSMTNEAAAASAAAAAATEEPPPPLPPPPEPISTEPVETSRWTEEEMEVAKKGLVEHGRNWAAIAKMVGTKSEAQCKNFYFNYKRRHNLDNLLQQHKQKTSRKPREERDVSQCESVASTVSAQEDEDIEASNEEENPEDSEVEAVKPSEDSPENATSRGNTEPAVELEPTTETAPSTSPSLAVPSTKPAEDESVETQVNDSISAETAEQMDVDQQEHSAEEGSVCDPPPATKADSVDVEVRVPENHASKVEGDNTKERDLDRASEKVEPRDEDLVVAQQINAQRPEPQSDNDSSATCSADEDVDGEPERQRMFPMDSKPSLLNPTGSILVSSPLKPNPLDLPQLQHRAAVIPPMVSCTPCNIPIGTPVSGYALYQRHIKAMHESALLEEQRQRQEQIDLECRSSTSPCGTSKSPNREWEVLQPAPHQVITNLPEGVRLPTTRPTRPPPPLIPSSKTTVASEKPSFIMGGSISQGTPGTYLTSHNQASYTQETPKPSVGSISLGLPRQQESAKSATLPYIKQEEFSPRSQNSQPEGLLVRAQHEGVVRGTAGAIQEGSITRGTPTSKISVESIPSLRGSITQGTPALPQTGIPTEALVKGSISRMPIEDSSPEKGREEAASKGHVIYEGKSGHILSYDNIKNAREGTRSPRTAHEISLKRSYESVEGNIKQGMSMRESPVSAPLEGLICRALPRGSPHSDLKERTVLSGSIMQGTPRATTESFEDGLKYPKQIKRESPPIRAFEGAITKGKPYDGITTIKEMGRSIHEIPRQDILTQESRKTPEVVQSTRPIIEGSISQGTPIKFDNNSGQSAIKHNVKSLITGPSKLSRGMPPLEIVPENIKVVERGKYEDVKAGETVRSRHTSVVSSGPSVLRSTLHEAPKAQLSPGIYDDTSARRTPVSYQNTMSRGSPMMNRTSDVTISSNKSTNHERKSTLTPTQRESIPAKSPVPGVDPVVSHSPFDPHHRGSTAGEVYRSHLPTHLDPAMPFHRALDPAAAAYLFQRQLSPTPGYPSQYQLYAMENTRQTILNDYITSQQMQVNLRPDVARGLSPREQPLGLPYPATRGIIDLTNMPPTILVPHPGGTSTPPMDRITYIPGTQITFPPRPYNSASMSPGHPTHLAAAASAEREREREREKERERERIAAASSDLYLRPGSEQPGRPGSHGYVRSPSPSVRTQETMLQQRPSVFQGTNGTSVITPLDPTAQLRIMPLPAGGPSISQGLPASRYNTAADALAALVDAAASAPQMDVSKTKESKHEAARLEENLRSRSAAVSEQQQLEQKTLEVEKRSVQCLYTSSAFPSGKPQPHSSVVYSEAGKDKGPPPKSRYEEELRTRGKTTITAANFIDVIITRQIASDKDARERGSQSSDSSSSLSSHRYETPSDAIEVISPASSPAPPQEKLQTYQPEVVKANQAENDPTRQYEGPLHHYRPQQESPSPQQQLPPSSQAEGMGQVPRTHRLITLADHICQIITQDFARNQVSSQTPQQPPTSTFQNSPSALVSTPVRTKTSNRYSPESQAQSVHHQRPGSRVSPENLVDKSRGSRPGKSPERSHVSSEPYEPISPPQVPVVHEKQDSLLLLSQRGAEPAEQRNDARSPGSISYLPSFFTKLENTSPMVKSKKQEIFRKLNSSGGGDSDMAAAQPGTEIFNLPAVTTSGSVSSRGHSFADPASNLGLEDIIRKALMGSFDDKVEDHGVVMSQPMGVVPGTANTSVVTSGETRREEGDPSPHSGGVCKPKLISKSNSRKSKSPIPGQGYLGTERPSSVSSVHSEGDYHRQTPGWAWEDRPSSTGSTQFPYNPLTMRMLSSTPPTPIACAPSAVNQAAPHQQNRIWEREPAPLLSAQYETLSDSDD", "assay": "SPR", "units": {"Kd": "nM"}, "values": [
      {"binder": "B5", "Kd": 800},
      {"binder": "B6", "Kd": 500}
    ]}
  ]
}
